In publication PMC5390017:
One block for each binder: values may come before it.

What was measured:
[1] = molecular target: tau phosphopeptide of the C-terminal domain phosphorylated at S422 (cognate peptide of CBTAU-22.1) (human); assay: ITC; MicroCal Auto iTC200, in solution; peptide ~40 µM, mAb 200 µM, 20 steps of 2 µl; fitted to a single set of sites, mAb:tau peptide = 1:2
[2] = molecular target: tau phosphopeptide 194-212 phosphorylated at S202 and T205 (human) (UniProt P10636); assay: as above

Sequence of tau phosphopeptide of the C-terminal domain phosphorylated at S422 (cognate peptide of CBTAU-22.1) (human) (P10636 721-746): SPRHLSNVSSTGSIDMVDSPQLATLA

- Kd [1]: 32.7 µM
B1: CBTAU-22.1 (human IgG1) (antibody, V domains shown)
VH: QVQLVQSGAEVKKPGAPVKVSCETSGYRFSDYNVHWVRQAPGQGPEWIGRISPNSGGTKYAQKFQGRVTMTRDMSMNTAYMELSGLRSDDTAVYYCVRGHCDGTTCSRAYWGQGTLVTVSS
VL: DVVMTQSPLSLPVTPGEPASISCRSSQSLLHRSGHKYLHWYLQRPGQSPQVLIYLGSNRASGVPDRFSGSGSGTDFTLKISRVEAEDVGLYYCMQTLQTPWTFGQGTKVEIK

- Kd [2]: 5.8 µM
B2: CBTAU-7.1 (human IgG1) (antibody, V domains shown)
VH: QVQLVESGGGLVQPGGSLRLSCAASGFTFSSYWMHWVRQAPGKGLVWVSRINSDGSDTNYADSVKGRFTFSRDNAKNTLYLQMTSLRAEDTAIYYCTRGRSYGFFDYWGQGALVTVSS
VL: DIVMTQSPDTLSLSPGERATLSCRASQIISSNYLAWYQQQPGQAPRLLIYGASSRATGIPDRFSGSGSATDFTLTISRLEPEDFAVYYCQQYGTSPRTFGQGTKLEIK
